Measurements published in US20240228562A1, “NOVEL LIPOCALIN MUTEINS SPECIFIC FOR CONNECTIVE TISSUE GROWTH FACTOR (CTGF)” (PIERIS PHARMACEUTICALS GMBH, priority 2021, published 2024).

Experiments:
[1] = Thermal stability assessment by nanoDSC; type: physicochemical; details: 1 mg/mL in PBS, scan 25-100° C. at 1° C./min
Outline: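 CTGF-specific lipocalin muteins at 1 mg/mL in PBS scanned from 25 to 100° C at 1° C/min by capillary nano-DSC. Where several transitions occur, the Tm of the major unfolding event is reported, along with onset temperature. Some muteins were expressed in E. coli, others in CHO cells.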

huNOV = biological target: T1, huNOV (Homo sapiens, UniProt P48745); assay: Specificity ELISA (CCN proteins), huNOV; type: binding; details: coated 1 μg/ml; assessed when human CTGF signal approached saturation
T1 sequence (P48745 32-357): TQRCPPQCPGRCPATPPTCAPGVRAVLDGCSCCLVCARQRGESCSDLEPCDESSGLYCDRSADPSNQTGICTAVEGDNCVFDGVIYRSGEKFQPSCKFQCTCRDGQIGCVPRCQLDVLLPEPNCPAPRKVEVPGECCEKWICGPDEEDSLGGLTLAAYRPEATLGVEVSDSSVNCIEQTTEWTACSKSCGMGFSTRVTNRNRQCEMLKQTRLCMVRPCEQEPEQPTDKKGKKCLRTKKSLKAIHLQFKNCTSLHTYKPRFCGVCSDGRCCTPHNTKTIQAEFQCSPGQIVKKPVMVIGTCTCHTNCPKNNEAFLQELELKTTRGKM
Method: (§1) Binding of muteins to closely related proteins of CTGF was tested by an ELISA assay. In detail, a 384-well plate suitable for fluorescence measurements (Greiner FLUOTRAC™ 600, black flat bottom, high-binding) was coated with 20 μl of human CTGF or the other members of the CCN protein family at a concentration of 1 μg/ml in PBS over night at 4° C. After washing with PBS with 0.05% Tween 20, wells were blocked with 100 μl blocking buffer containing 0.1% Tween 20 and 2% BSA (PBS-T/BSA) for 1 h at room temperature. 20 μl of serially diluted muteins starting at 1000 nM were incubated in PBS-T/BSA for 1 h at room temperature (RT).
(§2) The residual supernatants were discarded and 20 μl HRP-labeled anti-NGAL or anti-Strep-Tag antibody was added at a predetermined optimal concentration in PBS-T/BSA and incubated for 1 h at RT. After washing, 20 μl fluorogenic HRP substrate (QuantaBlu, Thermo) was added to each well, and the reaction was allowed to proceed for 2 to 60 minutes. The fluorescence intensity of every well on the plate was read using a fluorescence microplate reader (Tecan). When the signal for human CTGF approached saturation, the cross reactivity to the other proteins was assessed.

huWISP-3 = biological target: T2, huWISP-3 (Homo sapiens, UniProt O95389); assay: Specificity ELISA (CCN proteins), huWISP-3; type: binding; details: coated 1 μg/ml; assessed when human CTGF signal approached saturation
T2 sequence (O95389 24-354): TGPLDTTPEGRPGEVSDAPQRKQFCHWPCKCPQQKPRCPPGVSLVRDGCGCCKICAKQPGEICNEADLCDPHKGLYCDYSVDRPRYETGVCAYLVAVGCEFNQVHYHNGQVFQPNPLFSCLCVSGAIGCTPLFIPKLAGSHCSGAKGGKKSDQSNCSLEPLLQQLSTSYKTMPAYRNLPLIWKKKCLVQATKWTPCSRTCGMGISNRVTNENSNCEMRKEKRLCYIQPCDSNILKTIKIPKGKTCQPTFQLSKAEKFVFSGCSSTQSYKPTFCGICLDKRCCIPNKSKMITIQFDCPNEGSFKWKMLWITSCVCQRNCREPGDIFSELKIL
Method: as §1, §2

huWISP-2 = biological target: T3, huWISP-2 (Homo sapiens, UniProt O76076); assay: Specificity ELISA (CCN proteins), huWISP-2; type: binding; details: coated 1 μg/ml; assessed when human CTGF signal approached saturation
T3 sequence (O76076 24-250): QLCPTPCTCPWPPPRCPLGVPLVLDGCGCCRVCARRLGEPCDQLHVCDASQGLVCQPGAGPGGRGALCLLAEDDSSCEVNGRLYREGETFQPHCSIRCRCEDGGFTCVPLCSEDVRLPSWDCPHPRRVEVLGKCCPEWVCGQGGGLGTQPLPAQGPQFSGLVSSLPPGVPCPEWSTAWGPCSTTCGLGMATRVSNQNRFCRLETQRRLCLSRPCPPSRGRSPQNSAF
Method: as §1, §2

huCYR61 = biological target: T4, huCYR61 (Homo sapiens, UniProt O00622); assay: Specificity ELISA (CCN proteins), huCYR61; type: binding; details: coated 1 μg/ml; assessed when human CTGF signal approached saturation
T4 sequence (O00622 25-381): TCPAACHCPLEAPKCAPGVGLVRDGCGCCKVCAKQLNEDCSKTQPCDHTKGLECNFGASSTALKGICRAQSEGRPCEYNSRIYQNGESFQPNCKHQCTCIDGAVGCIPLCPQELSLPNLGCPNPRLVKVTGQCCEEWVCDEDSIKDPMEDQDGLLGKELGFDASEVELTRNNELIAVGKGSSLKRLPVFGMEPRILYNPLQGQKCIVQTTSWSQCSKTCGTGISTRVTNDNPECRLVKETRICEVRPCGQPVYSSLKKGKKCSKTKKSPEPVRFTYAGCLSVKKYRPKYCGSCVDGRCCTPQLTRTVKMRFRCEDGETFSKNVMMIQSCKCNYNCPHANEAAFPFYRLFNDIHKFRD
Method: as §1, §2

huWISP-1 = biological target: T5, huWISP-1 (Homo sapiens, UniProt O95388); assay: Specificity ELISA (CCN proteins), huWISP-1; type: binding; details: coated 1 μg/ml; assessed when human CTGF signal approached saturation
T5 sequence (O95388 23-367): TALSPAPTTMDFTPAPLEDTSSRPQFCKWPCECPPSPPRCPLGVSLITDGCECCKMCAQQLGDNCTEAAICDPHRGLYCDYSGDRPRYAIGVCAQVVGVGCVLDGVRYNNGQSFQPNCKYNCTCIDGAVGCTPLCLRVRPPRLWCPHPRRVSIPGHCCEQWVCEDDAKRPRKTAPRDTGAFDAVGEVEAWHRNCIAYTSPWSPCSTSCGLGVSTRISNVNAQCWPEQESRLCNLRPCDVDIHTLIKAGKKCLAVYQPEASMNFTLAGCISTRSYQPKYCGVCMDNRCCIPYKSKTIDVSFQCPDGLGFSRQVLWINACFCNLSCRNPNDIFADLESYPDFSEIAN
Method: as §1, §2

CTGF = biological target: T6, CTGF (Homo sapiens, UniProt P29279); assay: Specificity ELISA (CCN proteins), human CTGF; type: binding; details: coated 1 μg/ml, muteins from 1000 nM
T6 sequence (P29279 27-349): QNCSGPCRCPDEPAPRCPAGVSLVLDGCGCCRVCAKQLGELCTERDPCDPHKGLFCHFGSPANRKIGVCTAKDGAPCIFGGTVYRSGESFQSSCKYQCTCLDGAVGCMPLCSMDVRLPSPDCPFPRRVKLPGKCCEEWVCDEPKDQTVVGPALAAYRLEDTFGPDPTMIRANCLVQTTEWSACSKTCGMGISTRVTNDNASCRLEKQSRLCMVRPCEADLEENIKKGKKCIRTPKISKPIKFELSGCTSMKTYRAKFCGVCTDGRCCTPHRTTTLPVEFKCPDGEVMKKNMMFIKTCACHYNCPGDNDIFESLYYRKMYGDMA
Method: as §1, §2

ELISA binding to huNOV (huNOV): No binding | ELISA binding to huWISP-3 (huWISP-3): No binding | ELISA binding to huWISP-2 (huWISP-2): No binding | ELISA binding to huCYR61 (huCYR61): No binding | ELISA binding to huWISP-1 (huWISP-1): No binding | ELISA binding to HUMAN CTGF (CTGF): Binding
B1: SEQ ID NO: 76: fusion protein comprising two CTGF-binding lipocalin muteins (protein)
chain: QDSTSDLIPAPPLSKVPLQQNFQDNQFQGKWYVVGLAGNAILREDKQPAKMFATIYELKEDKSYDVTSVRFEAKSCKYTIKTFVPGSQPGEFTAGYIKSAPGQTSTLVRVVSTNYNQHAMVFFKHVTQNREIFVITLYGRTKELTSELKENFIRFSKSLGLPENHIVFPVPIDQCIDGGGGGSGGGGSGGGGSQDSTSDLIPAPPLSKVPLQQNFQDNQFQGKWYVVGWAGNVKLREDKQPLKMSATIYELKEDKSYDVTEVVFEQKKCHYIIKTFVPGSQPGEFTAGDIKSPPGYTSSLVRVVSTNYNQHAMVFFKKVSQNREFFWITLYGRTKELTSELKENFIRFSKSLGLPENHIVFPVPIDQCIDG
modifications: fusion protein
ONSET MELTING [1]: 63 °C | TM ([1]; major transition): 73 °C
